{"source": "patent US20200063100A1", "about": "(CRISPR THERAPEUTICS, published 2020)", "binders": {"B1": {"name": "anti-BCMA CAR, expressed on gene-edited human T cells (other)", "chain": "QVQLVQSGAELKKPGASVKVSCKASGNTLTNYVIHWVRQAPGQRLEWMGYILPYNDLTKYSQKFQGRVTITRDKSASTAYMELSSLRSEDTAVYYCTRWDWDGFFDPWGQGTTVTVSSGGGGSGGGGSGGGGSEIVMTQSPATLSVSPGERASISCRASQSLVHSNGNTHLHWYQQRPGQAPRLLIYSVSNRFSEVPARFSGSGSGTDFTLTISSVESEDFAVYYCSQTSHIPYTFGGGTKLEIKSAAAFVPVFLPAKPTTTPAPRPPTPAPTIASQPLSLRPEACRPAAGGAVHTRGLDFACDIYIWAPLAGTCGVLLLSLVITLYCNHRNRKRGRKKLLYIFKQPFMRPVQTTQEEDGCSCRFPEEEEGGCELRVKFSRSADAPAYQQGQNQLYNELNLGRREEYDVLDKRRGRDPEMGGKPRRKNPQEGLYNELQKDKMAEAYSEIGMKGERRRGKGHDGLYQGLSTATKDTYDALHMQALPPR", "notes": "also called anti-BCMA (4-1BB co-stim) CAR"}}, "target": "T1, biotinylated recombinant human BCMA (ACROS Cat# BC7-H82F0) (human, UniProt Q02223 1-54, biotinylated)", "T1 construct": "Bought reagent; also called biotinylated Human BCMA Protein, ACRO Biosystems; recombinant BCMA protein", "T1 sequence (looked up)": "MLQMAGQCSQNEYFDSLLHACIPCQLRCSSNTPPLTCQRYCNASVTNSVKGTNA", "experiment": "flow cytometry, CAR T cells stained with biotinylated antigen", "data": [{"binder": "B1", "values": [{"measurement": "binding result", "result": "binds"}]}]}
